How the values were obtained:
[1] = tested on: T1, myc-tagged rat mAKAP 1286-2083 (lacking the PP2A binding site)
T1 sequence: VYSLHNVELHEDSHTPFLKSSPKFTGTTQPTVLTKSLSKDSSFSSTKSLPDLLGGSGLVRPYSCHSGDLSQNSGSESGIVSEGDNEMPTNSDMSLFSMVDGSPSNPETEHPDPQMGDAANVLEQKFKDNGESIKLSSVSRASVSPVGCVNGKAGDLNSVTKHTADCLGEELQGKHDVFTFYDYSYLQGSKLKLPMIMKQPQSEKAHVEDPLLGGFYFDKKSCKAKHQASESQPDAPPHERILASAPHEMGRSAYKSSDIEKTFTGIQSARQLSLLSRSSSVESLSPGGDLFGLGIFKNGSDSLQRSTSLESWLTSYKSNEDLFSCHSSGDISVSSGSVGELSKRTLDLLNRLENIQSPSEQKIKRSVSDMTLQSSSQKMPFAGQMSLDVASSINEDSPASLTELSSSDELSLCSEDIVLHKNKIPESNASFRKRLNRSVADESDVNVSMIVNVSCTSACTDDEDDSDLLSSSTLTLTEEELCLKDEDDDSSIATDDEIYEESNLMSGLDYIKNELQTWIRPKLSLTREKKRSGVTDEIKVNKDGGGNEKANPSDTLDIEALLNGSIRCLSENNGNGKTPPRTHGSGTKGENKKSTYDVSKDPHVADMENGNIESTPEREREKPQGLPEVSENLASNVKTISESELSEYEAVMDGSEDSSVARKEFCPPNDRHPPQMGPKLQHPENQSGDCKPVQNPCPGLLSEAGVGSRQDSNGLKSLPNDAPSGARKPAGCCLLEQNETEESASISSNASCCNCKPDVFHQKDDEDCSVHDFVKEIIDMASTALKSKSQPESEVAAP

[2] = tested on: endogenous rat mAKAPβ (native mAKAP of adult rat heart extracts and neonatal rat ventricular myocytes)
[3] = tested on: T2, myc-tagged rat mAKAP PP2A Binding Domain (myc-PBD, rat mAKAP aa 2134-2314)
T2 sequence: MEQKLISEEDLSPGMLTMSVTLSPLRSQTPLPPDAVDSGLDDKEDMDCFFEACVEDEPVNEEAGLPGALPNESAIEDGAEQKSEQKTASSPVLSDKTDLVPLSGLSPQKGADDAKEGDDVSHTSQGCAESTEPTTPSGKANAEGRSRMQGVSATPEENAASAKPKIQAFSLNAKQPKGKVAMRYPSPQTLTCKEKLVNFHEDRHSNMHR

[4] = biological target: PP2A endogenous in HEK293 cells, detected as PP2A-C subunit or as okadaic acid-sensitive phosphatase activity; assay: cell-based or functional assay
PDE4D3 Ser-54 = PDE4D3 Ser-54 phosphorylation in mAKAP immunoprecipitates from transfected HEK293 cells (phospho-specific immunoblot); type: cell-based; conditions: HEK293 cells expressing PDE4D3 and mAKAP construct lacking the PP2A binding site
mAKAP-bound PDE4D3 = assay: PDE activity associated with mAKAP immunoprecipitates from transfected HEK293 cells ([3H]cAMP); type: cell-based; conditions: unstimulated (bar 1 and 4)
Experimental: Immunoprecipitation—HEK293 cells were used in this project as a heterologous system lacking mAKAP in which the various wildtype and mutant proteins could be easily expressed. Cells cultured on 60 mm plates were transfected at 50%-70% confluency by the calcium phosphate method, using 6 μg of each DNA construct per plate. Cells were harvested 24 hours after transfection in 0.5 ml HSE buffer (HEPES, pH 7.4, 150 mM NaCl, 5 mM EDTA, 1% Triton X-100 and protease inhibitors). Supernatants were incubated with 3 μg antibody and 15 μl prewashed protein A- or G-agarose beads. Following overnight incubation at 4° C., the immunoprecipitates were washed three times with the same buffer. Bound proteins were analyzed by immunoblotting. […]
As phosphorylation of PDE4D3 Ser-54 increases phosphodiesterase activity 2 fold (Sette and Conti 1996), whether OA treatment would also increase the activity of mAKAP-bound PDE4D3 was tested. mAKAP complexes were immunoprecipitated from transfected HEK293 cells and assayed for associated phosphodiesterase activity (FIG. 8B). mAKAP-associated phosphodiesterase activity in untreated cells was detected only when mAKAP was co-expressed with PDE4D3 (FIG. 8B, bar 1, and data not shown), consistent with a previous observation that PDE4D3 accounts for all of the phosphodiesterase activity associated with mAKAP in cardiac myocytes (Dodge et al. 2001).

PP2A = biological target: T3, PP2A (Homo sapiens, UniProt P30153+P67775); assay: myc-tag immunoprecipitation of mAKAP fragments from HEK293 cells with phosphatase assay; type: binding; conditions: myc-tagged fragments expressed in HEK293 cells
T3 construct: endogenous in cells; host or cells: HEK293
Experimental: Immunoprecipitation—HEK293 cells were used in this project as a heterologous system lacking mAKAP in which the various wildtype and mutant proteins could be easily expressed. Cells cultured on 60 mm plates were transfected at 50%-70% confluency by the calcium phosphate method, using 6 μg of each DNA construct per plate. Cells were harvested 24 hours after transfection in 0.5 ml HSE buffer (HEPES, pH 7.4, 150 mM NaCl, 5 mM EDTA, 1% Triton X-100 and protease inhibitors). Supernatants were incubated with 3 μg antibody and 15 μl prewashed protein A- or G-agarose beads. Following overnight incubation at 4° C., the immunoprecipitates were washed three times with the same buffer. Bound proteins were analyzed by immunoblotting.
To measure phosphatase activity, immunoprecipitated protein complexes were washed twice in HSE buffer and once in PP2A reaction buffer. The immunoprecipitates were incubated for 30 minutes at 30° C. in 20 μl PP2A assay buffer containing 100,000 cpm [^32P]histone in the presence and absence of inhibitors. The PP2A inhibitor (Calbiochem) was used at a concentration of 30 nM. Purified I-1 was phosphorylated by PKA before using as a specific PP1 inhibitor. Reactions were terminated by the addition of 100 μl 20% TCA followed by 10 min centrifugation. TCA supernatants containing released ^32PO4 were measured by scintillation counting. […]

[5] = biological target: T4, myc-tagged, green fluorescent protein (GFP) RBD-fusion protein (mAKAP aa 1694-1833)
T4 chain: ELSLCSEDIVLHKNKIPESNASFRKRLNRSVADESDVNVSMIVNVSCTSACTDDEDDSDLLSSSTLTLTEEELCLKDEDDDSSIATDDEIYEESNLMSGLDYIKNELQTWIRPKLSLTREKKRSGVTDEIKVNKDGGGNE

[6] = tested on: adult rat ventricular myocytes (ARVM); assay: ARVM morphologic hypertrophy (cell width and length by immunocytochemistry); type: cell-based; conditions: adenoviral expression, no drug
Experimental: Adult rat ventricular myocyte isolation and culture: 2-3 month old rats were anesthetized using Ketamine (80-100 mg/kg) and Xylazine (5-10 mg/kg) IP following 1000 U heparinization for cardiac excision. The heart was transferred immediately into chilled perfusion buffer (NaCl 120 mM, KCl 5.4 mM, Na2HPO4·7H2O 1.2 mM, NaHCO320.0 mM, MgCl2·6H2O 1.6 mM, Taurine 5 mM, Glucose 5.6 mM, 2,3-Butanedione monoxime 10 mM) pre-equilibrated with 95% O2 and 5% CO2. After removal of extraneous tissue, the heart was attached via the aorta to a Harvard Langendorff apparatus cannula. Ca^2+-free perfusion was used to flush out remaining blood with a constant rate of 8-10 mL/min at 37° C. The heart was then digested through circulatory perfusion with 50 mL perfusion buffer containing 125 mg type II collagenase (Worthington, 245 U/mg), 0.1 mg protease (Sigma type XIV) and 0.1% BSA. After perfusion, the atria were removed and the ventricular myocytes dissociated by slicing and repetitive pipetting. The debris was filtered by a 200 μm nylon mesh, and the myocytes collected by one minute centrifugation at 50 g. Ca^2+ concentration in the buffer was gradually recovered to 1.8 mM and the myocytes were resuspended in ACCT medium (M199 Medium (Invitrogen 11150-059), Creatine 5 mM, L-carnitine 2 mM, Taurine 5 mM, HEPES 25 mM, 2,3-Butanedione monoxime 10 mM, BSA 0.2% and 1×Insulin-Transferrin-Selenium Supplement) and plated on 10 μg/ml laminin pre-coated dishes. Cells were washed with ACCT medium 1.5 hours after plating and subjected to adenoviral infection or siRNA transfection, in which 100-200 Multiplicity of Infection (MOI) of adenovirus and 100 nmol/L siRNA mixed with Dharmafect1 (Dharmacon) were used, respectively. Adrenergic agonists were added the next day, with biochemical assay and morphological measurement performed after 24 hours of stimulation.
Immunocytochemistry: Myocytes on coverslips were fixed in 3.7% formaldehyde in PBS for 1 hour, permeabilized with 0.3% Triton X-100, and blocked in PBS containing 0.2% BSA and 1% horse serum. The slides were then sequentially incubated for 1 hour with primary and Alexa fluorescent dye-conjugated specific-secondary antibodies (Invitrogen, 1:1000) diluted in blocking buffer. The slips were washed three times with blocking buffer. 1 μg/mL Hoechst 33258 was included in the last wash stop to label nuclei. Slides were sealed in SlowFade Gold antifade buffer (Invitrogen, S36938) for fluorescent microscopy. Wide-field images were acquired using a Leica DM4000 Microscope.

T3 sequence (P67775 whole entry, the tested form may be a part): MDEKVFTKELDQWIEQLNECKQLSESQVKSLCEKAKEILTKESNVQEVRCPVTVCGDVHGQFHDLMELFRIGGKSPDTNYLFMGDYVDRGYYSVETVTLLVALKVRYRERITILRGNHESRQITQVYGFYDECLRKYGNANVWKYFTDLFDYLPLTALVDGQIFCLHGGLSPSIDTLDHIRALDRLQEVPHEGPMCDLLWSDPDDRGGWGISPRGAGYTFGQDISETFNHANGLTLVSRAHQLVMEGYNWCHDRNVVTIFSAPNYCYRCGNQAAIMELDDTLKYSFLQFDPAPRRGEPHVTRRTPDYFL
T3 sequence (P30153 whole entry, the tested form may be a part): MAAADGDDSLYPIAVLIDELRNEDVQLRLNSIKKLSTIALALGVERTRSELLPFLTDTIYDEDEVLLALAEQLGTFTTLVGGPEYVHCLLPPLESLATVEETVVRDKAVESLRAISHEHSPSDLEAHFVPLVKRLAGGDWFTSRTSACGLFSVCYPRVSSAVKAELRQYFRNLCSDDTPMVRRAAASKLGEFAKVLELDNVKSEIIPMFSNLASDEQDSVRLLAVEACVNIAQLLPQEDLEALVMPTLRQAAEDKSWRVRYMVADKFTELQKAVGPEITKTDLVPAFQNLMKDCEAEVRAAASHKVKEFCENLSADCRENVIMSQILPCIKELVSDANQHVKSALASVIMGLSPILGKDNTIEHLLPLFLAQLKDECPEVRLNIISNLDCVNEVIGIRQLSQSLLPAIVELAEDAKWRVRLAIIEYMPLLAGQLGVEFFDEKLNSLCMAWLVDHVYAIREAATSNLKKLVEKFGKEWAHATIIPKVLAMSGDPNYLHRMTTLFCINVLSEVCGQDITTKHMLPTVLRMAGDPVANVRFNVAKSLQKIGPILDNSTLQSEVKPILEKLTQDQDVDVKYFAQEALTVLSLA

Molecule: PP2A endogenous in HEK293 cells, detected as PP2A-C subunit or as okadaic acid-sensitive phosphatase activity
- baseline phosphorylation of mAKAP-bound PDE4D3 Ser-54 [1]: 0.49±0.19 fold of the level obtained with OA

Molecule: endogenous PP2A of rat heart and rat ventricular myocytes, detected as PP2A catalytic subunit (PP2A-C)
- phosphatase activity associated with mAKAP immunoprecipitates from heart extracts ([32P]histone substrate) [2]: 3-fold enrichment of phosphatase activity over control IgG immunoprecipitates
- Iso-induced SRF Ser103 phosphorylation in ARVM [3]: PBD expression potentiated the induction of SRF Ser^103 phosphorylation in ARVM stimulated with the β-adrenergic isoproterenol

Molecule: myc-tagged rat mAKAP 1286-2083 (lacking the PP2A binding site) (from UniProt Q9WVC7 1286-2083)
- PDE4D3 activity in myc-tag immunoprecipitates [4]: 30 % higher

B1: mAKAP 1286-2083: myc-tagged rat mAKAP 1286-2083 construct deficient in PP2A binding (protein)
chain: T1 sequence
modifications: left off: small tags and cut ends
- baseline phosphorylation of mAKAP-bound PDE4D3, fold of the level obtained with OA (PDE4D3 Ser-54): 0.49±0.19 fold
- PDE4D3 activity higher in immunoprecipitates lacking PP2A than in complexes containing the phosphatase (mAKAP-bound PDE4D3): 30%
- co-immunoprecipitation with OA-sensitive phosphatase activity (PP2A): not

B2: endogenous RSK3 of rat ventricular myocytes (protein)
chain: MELNMKKFTVRRFFSVYLRKKSRSKSSSLSRLEEEGIVKEIDISSHVKEGFEKADPSQFELLKVLGQGSYGKVFLVRKVTGSDAGQLYAMKVLKKATLKVRDRVRSKMERDILAEVNHPFIVKLHYAFQTEGKLYLILDFLRGGDLFTRLSKEVMFTEEDVKFYLAELALALDHLHGLGIIYRDLKPENILLDEEGHIKITDFGLSKEAIDHDKRAYSFCGTIEYMAPEVVNRRGHTQSADWWSFGVLMFEMLTGSLPFQGKDRKETMALILKAKLGMPQFLSAEAQSLLRALFKRNPCNRLGAGVDGVEEIKRHPFFVTIDWNKLYRKEIKPPFKPAVGRPEDTFHFDPEFTARTPTDSPGVPPSANAHHLFRGFSFVASSLVQEPSQQDVPKAPIHPIVQQLHGNNIHFTDGYEIKEDIGVGSYSVCKRCVHKATDAEYAVKIIDKSKRDPSEEIEILLRYGQHPNIITLKDVYDDGKYVYLVMELMRGGELLDRILRQRCFSEREASDVLYTIARTMDYLHSQGVVHRDLKPSNILYMDESGNPESIRICDFGFAKQLRAENGLLMTPCYTANFVAPEVLKRQGYDAACDVWSLGILLYTMLAGFTPFANGPDDTPEEILARIGSGKYALSGGNWDSISDAAKDVVSKMLHVDPQQRLTAVQVLKHPWIVNREYLSQNQLSRQDVHLVKGAMAATYFALNRTPQAPRLEPVLSSSLAQRRGMKRLTSTRL
- PE-induced SRF Ser103 phosphorylation in NRVM and ARVM [5]: inhibited PE-induced SRF Ser^103 phosphorylation in both NRVM and primary adult rat ventricular myocyte cultures
- basal ARVM morphology [6]: selectively increased the width

Reference: patent US11938198B2, “Treatment of heart disease by disruption of the anchoring of PP2A” (University of Miami, priority 2019, dated 2024)
